From a protein production outcome set (Wang et al. 2014)

Assay: label from the status in PepcDB records

| Sequence | protein production |
| --- | --- |
| MEVSERIIIGNKISKITIIANIALSILKILAGVFGKSSALIADGMHSFSDILSTVVVMLGLKLSEKPADESHPYGHERIEPALTKILAVILLVTALMIFYCGLTTIIGGNYQIPGNITIIAALISIFTKEWMYKYTKKGAEQIESSALLADAWHHRSDAFSSVGTLIGVVGAKLGYPILDPIASIVISLFIAKMAFEIYFKALNQLLDRAADSKTIEEIKKIILSVDGVLEIDVLKTRIHSNKIYVDVEISVDKDLSLIEAHNISENVHSQIESKLKRVKHCMVHVNPYLK | failed |
| MQQYAPTIQRALLFGLLIILLLLGFHILKYFIVPVVWAAIIAYMTWPIYIGIQRFCGENRPNLSATLMISLIILVIGIPLTFAVFMLQHEGRNLFIELQQQIFSGHLSAPDFIRELPLVGNEITRILNEINTNPSNLTQNLSLWIQSHMGYGRFVLSEISKNLVKLCFALLSLFFFYRDGHTILNQVSKALEMVIGPRIHHYMDTISETTRAVVYGVGLTAVAQAILAGLSYFVAGVPNPMVLTIVTFLLALIPFGTPLAYTSVALWLFSQGQMMGAIGVMLWGVCIVSTSDNVIRPLVISGATQIPFLLIMFGVLGGLASFGLVGLFIGPVILAILLAIWREWLHENIEPEPVPKATLIYDDLDDQTKL | failed |
| MSNLISRILTALIFGFITLCLTWVGGTLFFLFVWVIGGFILYEWMSITKEKWHVLQKILASVFYLVFGAFLISNASASLIFCILIALAALLAIGPMRKSVWVFFGFLYVCFPVVALSFLRGHEPLGFWVVIFLFTIVWGTDIAGYFSGRAFGGPKLAPQFSPNKTWMGAIGGTFVGVSGGILIAFQFFDLNSAVFFVLLLALILSIVSQMSDLGQSWLKRQFSVKDSGSLLPGHGGFMDRMDGLVGAAFLLYLIGSFMSNMDTPFNLFCMV | failed |
| MSLGTIIIVDDNKGVLTAVQLLLKNHFSKVITLSSPVSLSTVLREENPEVVLLDMNFTSGINNGNEGLFWLHEIKRQYRDLPVVLFTAYADIDLAVRGIKEGASDFVVKPWDNQKLLETLLNAASQAKDGKKEGHHHHHH | not failed |
| MMSGLVYRKRRRQNMTALERSWFEEAQQSMHGWDFSHLAGRWQTADLPWDYAALVREHLSADDRWLDIDTGGGELMGRFNPQPALTAVTEGWQPNIELLKQTVVKKGITLYPDAAEQLTAVPNSTFDIVTNSHGAMPVKRIAEVLKPGGRFVTQQVGATNNYALSRFFDEHYETAYPDNQLLTVMAQMQAAGFEILRAEQAYAALSFTDVGAIVYYATVIPWEFPHFDVARMLPKLHQLQSLLAINGRVTTFEDRFMIIARKLARRD | failed |
| MKKLAIAISTILLSGAAYAGNTADVELFNADDNDVNIFQMSPAVGNDADVLIRNSDENEVDIYQMGRHNDAVVRVRNGSDDNDLMIDQDGRHNRAVLKARLGSDENDFAIEQDGRLNLGKVIADDSDNNNGLIDQRGRRNEAYINFDSASDNSNNKIVQRGRRNEGEISVMGGSNNGTLKIRQKGHDNDSKIHVYGGSGNEALTKINGDDNTTYTAFYAGASDNDTTILMKNDSLDNTVYAVVVGGSFNEADVTIDSSNDNFVSVAQWGDSSMAEVTLENGSNDNWIMINQTNNDMATVTADNSSYNAVVITQL | failed |
| MAISVFDLFKIGIGPSSSHTVGPMRAAALFTAALRQRQALSAVRRLEVRLYGSLSATGVGHGTDRAVIMGLMGEWPDRIDPTQIAPRMAALLDSGLLQLDGRVAVPFDWVRDMRLLDENLPYHPNAMTLVAYGEQGELHQETYYSVGGGFVVDAAQAASGQLDQDHTVLPYDFSSAEELLLLCKRHNLRVSELMLANERIWRSETDIREGLRRIWQAMRDCVDNGLRNEGILPGGLNVQRRAARLHRNLQEIGKPNVIGSTLSAMEWVNLFALAVNEENAAGGRMVTAPTNGAAGIIPAVLHYYMKFNPDAQDRDVVDYLLAAAAVGILCKKNASISGAEVGCQGEVGSACAMAAAGLAEVLGATPAQVENAAEIGLEHNLGLTCDPVGGLVQVPCIERNAIAAVKAINAAQMALRGDGQHFISLDKVIRTMRDTGADMHDKYKETSRGGLAVNAIE | failed |
| MQAIRSILVVIEPDQLEGLALKRAQLIAGVTQSHLHLLVCEKRRDHSAALNDLAQELREEGYSVSTNQAWKDSLHQTIIAEQQAEGCGLIIKQHFPDNPLKKAILTPDDWKLLRFAPCPVLMTKTARPWTGGKILAAVDVGNNDGEHRSLHAGIISHAYDIAGLAKATLHVISAHPSPMLSSADPTFQLSETIEARYREACRTFQAEYGFSDEQLHIEEGPADVLIPRTAQKLDAVVTVIGTVARTGLSGALIGNTAEVVLDTLESDVLVLKPDDIIAHLEELASKE | not failed |
| MSLVEATLEVIGGKWKCVILCHLTHGKKRTSELKRLMPNITQKMLTQQLRELEADGVINRIVYNQVPPKVEYELSEYGRSLEGILDMLCAWGANHINRVEGHHHHHH | not failed |
| MTRRLVLMLALLSGSAGASGSFFTLLQTWQGLGHAPIAVSPDGRLLALTRPAPRTPAYAPYDTRIEVRDTAKMRRLYRVPAANGDGKTLLFSPDSRTLWSAHSGTLHYDAWTGKLADNREGSDGAGVSALAFAPGGQSYVLAGVNAVGQTRLVRVGVSPLRSFWPVTRPTAGDGMQPNWTSALAFSPDGRWVASGSVGGGVILRSSVTGRPLRVLADEPGQAPHRARLVDLLFLSPARLLSASADGQVRLWDAATGRALASLPCGERLGAVVQLPGGTRVVAATSRGLQLIETSGGRLRRLETVGGDYADVGVSAAGELWAITRGGTLSHWRLLSR | failed |
| MEVRWCATSDPEQHKCGNMSEAFREAGIQPSLLCVRGTSADHCVQLIAAQEADAITLDGGAIYEAGKEHGLKPVVGEVYDQEVGTSYYAVAVVRRSSHVTIDTLKGVKSCHTGINRTVGWNVPVGYLVESGRLSVMGCDVLKAVSDYFGGSCVPGAGETSYSESLCRLCRGDSSGEGVCDKSPLERYYDYSGAFRCLAEGAGDVAFVKHSTVLENTDGKTLPSWGQALLSQDFELLCRDGSRADVTEWRQCHLARVPAHAVVVRADTDGGLIFRLLNEGQRLFSHEGSSFQMFSSEAYGQKDLLFKDSTSELVPIATQTYEAWLGHEYLHAMKGLLCDPNRLPPYLRWCVLSTPEIQKCGDMAVAFRRQRLKPEIQCVSAKSPQHCMERIQAEQVDAVTLSGEDIYTAGKKYGLVPAAGEHYAPEDSSNSYYVVAVVRRDSSHAFTLDELRGKRSCHAGFGSPAGWDVPVGALIQRGFIRPKDCDVLTAVSEFFNASCVPVNNPKNYPSSLCALCVGDEQGRNKCVGNSQERYYGYRGAFRCLVENAGDVAFVRHTTVFDNTNGHNSEPWAAELRSEDYELLCPNGARAEVSQFAACNLAQIPPHAVMVRPDTNIFTVYGLLDKAQDLFGDDHNKNGFKMFDSSNYHGQDLLFKDATVRAVPVGEKTTYRGWLGLDYVAALEGMSSQQC | failed |
| MTVNAKTSPSAGNTWRDLPAAQQPEYPDTEALRAVIADLESYPPLVFAGECDQLRARMAAVAKGEAFLLQGGDCAEAFDAVSADHIRNKLKTLLQMGAVLTYAASVPVVKVGRIAGQYSKPRSKPTETRDGVTLPTYRGDSVNGFDFTEAARIPDPERLKRMYHASASTLNLVRAFTTGGYADLRQVHAWNQDFVKSSPSGQRYEQLAREIDNALNFMRACGTDPAEFQTVEFFSSHEALLLDYESALTRVDSRTGQLYDVSGHMVWIGERTRQLDHAHIEFASRIRNPIGIKLGPSTTAEEALQYIERLDPEREPGRLTFIVRMGADKIRDKLPELVEKVTASGATVAWITDPMHGNTYEAASGHKTRRFDDVLDEVKGFFEVHKSLGTHPGGIHVELTGDDVTECVGGGDEIFVDDLHQRYETACDPRLNRSQSLDLAFLVAEMYRDQ | not failed |
| MNQHLSISPSVSRPVWHQAIPLLLLEAALVLTWSSGFIGARFSLDYAPPLLVVFWRCVVVTLLLLPFVARQLVTLPPTLLLKNTGIGLLAMTGYVAGVTQGIALGVPAGLAALFADLLPMGMALLAALVLGQRLVWQIWAGLVVGLIGVVLVTHSALEWGNAPLWAYGLPLLGMFSLAIATLWQKHSTTSQPMKLLPNLWLQYFISSFAFAIIQGTQGGLAPIASSGFALSVAWTVGLATLGGYGLYWVCLRRAKATRVASVLYLSPPVTMLWAWAMFDEPLSWQIALGMVVSGVGVWMVIRAEARQVAS | failed |
| MKVCYYYDGDVGNYYYGQGHPMKPHRIRMTHNLLLNYGLYRKMEIYRPHKANAEEMTKYHSDDYIKFLRSIRPDNMSEYSKQMQRFNVGEDCPVFDGLFEFCQLSTGGSVASAVKLNKQQTDIAVNWAGGLHHAKKSEASGFCYVNDIVLAILELLKYHQRVLYIDIDIHHGDGVEEAFYTTDRVMTVSFHKYGEYFPGTGDLRDIGAGKGKYYAVNYPLRDGIDDESYEAIFKPVMSKVMEMFQPSAVVLQCGSDSLSGDRLGCFNLTIKGHAKCVEFVKSFNLPMLMLGGGGYTIRNVARCWTYETAVALDTEIPNELPYNDYFEYFGPDFKLHISPSNMTNQNTNEYLEKIKQRLFENLRMLPHLEHHHHHH | failed |
| MKPLKEVVGAYLALSDAQRQLVAGEYDEAAANCRRAMEISHTMPPEEAFDHAGFDAFCHAGLAEALAGLRSFDEALHSADKALHYFNRRGELNQDEGKLWISAVYSRALALDGLGRGAEAMPEFKKVVEMIEERKGETPGKERMMEVAIDRIAQLGAS | not failed |
| IFLDSNMSLDVVWHVYSNMMSPEIEQFSNSVPKSPIRELLELEPETAKFGKPEKLADGRRVRVTVDVFCKGTFRGIGRNYRIAKCTAAKCALRQLKKQGLIAKKD | failed |
| MPHELSWGDIYFSPTLLVLFLAVTATWITVMILNKTRLSRFIAFPSLTFIAIMVGYVVAIDSFYIQF | failed |
| MVTFVLAITAISCLIWCFLLVGWGNFWRCDQVLNFDRPSTLQAYPSVAAIIPARDEASVLGQSLPSLLEQHYPGPLKIILVDDQSSDGTGAVAQRIASGLGHGDRLEVVSGQPLPPGWSGKLWAVEQGWQTVQLKKKGSDSWPEYIFLTDADIAHGPQTITALVEKAQRDNLALVSLMVLLRCESVWEKLLIPAFIFFFQKLYPFPLVNNPQRQTAAAAGGCILMQRSALQTIGGIGALKEALIDDCTLAQKVKAQKLPIWLGLTRANWSLRPYDSLETIWQMVSRTAYTQLNYNPLLLLGTLLGMALVYLTAPIALILAIIWGNAPLALLGAFTWMLMAIAYGPTLKFYGRSWLWGLTLPLIALLYSLMTLDSAWQHWRGQGGGWKGRIYPQGS | failed |
| PVLTQTSEQAPSSAPRDVQARMLSSTTILVQWKEPEEPNGQIQGYRVYYTMDPTQHVNNWMKHNVADSQITTIGNLVPQKTYSVKVLAFTSIGDGPLSSDIQVITQTG | not failed |
| MQRYDAVISGAGPAGCSAALSLAQKGRRVLLIDKARFPREKICGDGVTAASTELLEEMGVLELLRQRPGSLTEFRGATFVSPGGTVVQGRILRNGHLSGSSYVIPRMVLDDSLVSRVKEHSSITFLDKTTVTGLVMDGDRARGVATSAGEFCGRIIIAADGAYSPIAKQLDLWNRDKRQQGFAMRAWFSGVEGLGDSIELCYDKAMLPGYGWIFPAGEQRANVGVFLLPRFADQRSTKRLFKSFVKENAFAAARLKNAVMEPGSLKSWPLPFGSFAGRRGRGNVLLAGDAGSFIDPLTGEGIYYALKTGRYAAEAVANALERNDESAALTRYEQLWRGEFSGRVYFPGYAFQHFMNNSWFVDTFMRYTAKKQHRADLLADVVAHNRKRRELFKLLNPFYLEHHHHHH | failed |
| MQRTGELPAEHVPVILESSGAGDFHLIDSGNGLKLEQYGDYRVVRPEAQALWRPLVPDRVWQNADAIFTGDTDEDGMGRWRFPKEALGETWPLSLLGVEFLGRFTAFRHVGVFPEQIVHWEWLKNAVETADRPLKVLNLFGYTGVASLVAAAAGAEVTHVDASKKAIGWAKENQVLAGLEQAPIRWICEDAMKFIQREERRGSTYDIILTDPPKFGRGTHGEVWQLFDHLPLMLDICREILSPKALGLVLTAYSIRASFYSMHELMRETMRGAGGVVASGELVIREAGLDGKTPGRVLSTSLFSRWEPK | not failed |
